Results on one substance are retold here after patent US20140072613A1, “Compositions and Methods for Treating Cutaneous Scarring” (priority 2012, published 2014).

Among the targets are Abl(T315I)(h) (human) (UniProt P00519); Arg(h) (human) (UniProt P42684); CLK3(h) (human) (UniProt P49761); CaMKIIγ(h) (human) (UniProt Q13555); HIPK1(h) (human) (UniProt Q86Z02); IR(h) (human) (UniProt P06213); IR(h), activated (human) (UniProt P06213); JAK2(h) (human) (UniProt O60674); JAK3(h) (human) (UniProt P52333); MLK1(h) (human) (UniProt P80192); MSK1(h) (human) (UniProt O75582); NEK7(h) (human) (UniProt Q8TDX7); PKBα(h) (human) (UniProt P31749); TLK2(h) (human) (UniProt Q86UE8); cKit(D816H)(h) (human) (UniProt P10721); mTOR/FKBP12(h) (human) (UniProt P42345).

Common to all, as to assay: cell-based or functional assay
The target of a further assay is T1, GRK7(h) (human) (UniProt Q8WTQ7).
T1 sequence (looked up): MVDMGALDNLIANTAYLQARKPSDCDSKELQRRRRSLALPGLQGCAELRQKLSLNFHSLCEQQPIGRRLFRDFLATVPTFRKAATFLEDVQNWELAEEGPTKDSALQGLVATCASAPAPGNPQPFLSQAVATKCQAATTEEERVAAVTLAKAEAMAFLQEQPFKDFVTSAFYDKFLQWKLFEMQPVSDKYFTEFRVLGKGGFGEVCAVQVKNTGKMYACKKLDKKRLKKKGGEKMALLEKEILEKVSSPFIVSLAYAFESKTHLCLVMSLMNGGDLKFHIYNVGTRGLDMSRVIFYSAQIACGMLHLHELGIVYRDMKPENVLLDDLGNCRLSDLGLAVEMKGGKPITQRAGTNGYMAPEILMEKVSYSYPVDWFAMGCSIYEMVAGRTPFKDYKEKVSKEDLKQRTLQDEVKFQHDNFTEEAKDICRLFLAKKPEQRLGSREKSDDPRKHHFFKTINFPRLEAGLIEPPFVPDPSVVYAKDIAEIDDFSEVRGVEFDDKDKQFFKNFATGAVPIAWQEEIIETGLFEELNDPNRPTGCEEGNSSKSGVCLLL

In another assay the target is T2, Mer(h) (human) (UniProt Q12866).
T2 sequence (looked up): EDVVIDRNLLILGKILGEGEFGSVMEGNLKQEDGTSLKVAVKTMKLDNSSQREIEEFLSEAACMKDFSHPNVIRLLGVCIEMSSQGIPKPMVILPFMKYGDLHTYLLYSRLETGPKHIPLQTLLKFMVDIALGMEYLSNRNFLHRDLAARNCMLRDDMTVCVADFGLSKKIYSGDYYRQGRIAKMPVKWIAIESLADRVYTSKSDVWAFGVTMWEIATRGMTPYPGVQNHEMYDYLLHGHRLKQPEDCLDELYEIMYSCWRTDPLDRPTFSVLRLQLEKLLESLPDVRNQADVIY

The next assay deals with T3, NEK2(h) (human) (UniProt P51955).
T3 sequence (looked up): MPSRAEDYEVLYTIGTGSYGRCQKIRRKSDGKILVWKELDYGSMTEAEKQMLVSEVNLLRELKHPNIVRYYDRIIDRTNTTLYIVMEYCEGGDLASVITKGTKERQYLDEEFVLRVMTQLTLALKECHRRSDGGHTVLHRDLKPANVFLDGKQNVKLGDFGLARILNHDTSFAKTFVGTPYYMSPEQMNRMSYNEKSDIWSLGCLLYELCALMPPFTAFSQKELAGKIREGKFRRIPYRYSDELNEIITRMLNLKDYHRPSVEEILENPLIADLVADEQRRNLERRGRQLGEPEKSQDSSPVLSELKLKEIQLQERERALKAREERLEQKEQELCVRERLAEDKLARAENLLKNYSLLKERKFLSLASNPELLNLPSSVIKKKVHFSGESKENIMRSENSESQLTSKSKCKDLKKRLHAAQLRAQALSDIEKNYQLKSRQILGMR

The target of the next assay is T4, ULK3(h) (human) (UniProt Q6PHR2).
T4 sequence (looked up): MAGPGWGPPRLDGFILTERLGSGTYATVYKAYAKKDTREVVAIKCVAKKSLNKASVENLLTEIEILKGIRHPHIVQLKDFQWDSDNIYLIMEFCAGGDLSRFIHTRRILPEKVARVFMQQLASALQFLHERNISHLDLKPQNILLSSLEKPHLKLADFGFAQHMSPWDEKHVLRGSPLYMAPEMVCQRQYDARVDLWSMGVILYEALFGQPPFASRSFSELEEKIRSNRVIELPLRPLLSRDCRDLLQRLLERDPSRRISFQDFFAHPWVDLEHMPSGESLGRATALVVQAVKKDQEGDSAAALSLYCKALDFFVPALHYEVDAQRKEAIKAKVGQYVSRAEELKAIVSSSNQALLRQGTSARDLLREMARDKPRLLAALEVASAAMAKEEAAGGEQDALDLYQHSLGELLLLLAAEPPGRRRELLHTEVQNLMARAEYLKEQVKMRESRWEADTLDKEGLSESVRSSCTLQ

Sequence of mTOR/FKBP12(h) (human) (P42345 1362-2549 limits assumed, chain 1 of 2): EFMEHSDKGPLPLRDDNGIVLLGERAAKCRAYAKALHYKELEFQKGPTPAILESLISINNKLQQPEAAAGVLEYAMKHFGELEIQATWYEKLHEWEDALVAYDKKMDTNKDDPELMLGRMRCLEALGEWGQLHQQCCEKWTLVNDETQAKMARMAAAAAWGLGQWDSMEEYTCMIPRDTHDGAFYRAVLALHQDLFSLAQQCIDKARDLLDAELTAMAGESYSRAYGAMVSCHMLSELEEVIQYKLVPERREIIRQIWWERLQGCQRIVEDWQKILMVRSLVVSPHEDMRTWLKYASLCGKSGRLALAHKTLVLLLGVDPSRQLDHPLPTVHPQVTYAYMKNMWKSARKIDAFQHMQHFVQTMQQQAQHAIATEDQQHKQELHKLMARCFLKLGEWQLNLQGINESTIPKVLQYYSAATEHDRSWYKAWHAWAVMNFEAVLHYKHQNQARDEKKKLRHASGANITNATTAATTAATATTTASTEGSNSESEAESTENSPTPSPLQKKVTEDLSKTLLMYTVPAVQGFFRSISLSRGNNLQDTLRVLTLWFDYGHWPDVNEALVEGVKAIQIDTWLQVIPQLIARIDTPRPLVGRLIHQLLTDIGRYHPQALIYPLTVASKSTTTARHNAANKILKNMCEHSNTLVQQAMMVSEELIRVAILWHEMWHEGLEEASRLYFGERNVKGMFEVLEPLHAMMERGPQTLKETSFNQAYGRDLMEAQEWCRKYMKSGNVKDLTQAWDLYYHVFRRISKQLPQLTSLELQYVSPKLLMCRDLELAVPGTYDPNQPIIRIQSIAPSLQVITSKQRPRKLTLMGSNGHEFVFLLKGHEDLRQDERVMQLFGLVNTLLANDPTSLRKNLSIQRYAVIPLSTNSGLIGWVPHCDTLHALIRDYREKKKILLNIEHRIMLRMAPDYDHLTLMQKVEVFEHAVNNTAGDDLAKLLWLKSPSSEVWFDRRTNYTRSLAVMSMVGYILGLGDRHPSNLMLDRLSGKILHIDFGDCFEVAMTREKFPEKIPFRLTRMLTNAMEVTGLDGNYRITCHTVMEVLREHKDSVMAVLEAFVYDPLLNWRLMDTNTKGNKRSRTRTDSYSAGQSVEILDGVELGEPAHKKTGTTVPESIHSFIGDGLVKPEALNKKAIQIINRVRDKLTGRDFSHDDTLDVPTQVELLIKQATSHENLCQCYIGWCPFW
Sequence of mTOR/FKBP12(h) (human) (P62942 whole entry, chain 2 of 2, further chain): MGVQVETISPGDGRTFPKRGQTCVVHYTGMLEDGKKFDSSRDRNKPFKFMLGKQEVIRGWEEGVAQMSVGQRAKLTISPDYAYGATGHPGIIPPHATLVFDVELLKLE
Sequence of CaMKIIγ(h) (human) (Q13555 whole entry): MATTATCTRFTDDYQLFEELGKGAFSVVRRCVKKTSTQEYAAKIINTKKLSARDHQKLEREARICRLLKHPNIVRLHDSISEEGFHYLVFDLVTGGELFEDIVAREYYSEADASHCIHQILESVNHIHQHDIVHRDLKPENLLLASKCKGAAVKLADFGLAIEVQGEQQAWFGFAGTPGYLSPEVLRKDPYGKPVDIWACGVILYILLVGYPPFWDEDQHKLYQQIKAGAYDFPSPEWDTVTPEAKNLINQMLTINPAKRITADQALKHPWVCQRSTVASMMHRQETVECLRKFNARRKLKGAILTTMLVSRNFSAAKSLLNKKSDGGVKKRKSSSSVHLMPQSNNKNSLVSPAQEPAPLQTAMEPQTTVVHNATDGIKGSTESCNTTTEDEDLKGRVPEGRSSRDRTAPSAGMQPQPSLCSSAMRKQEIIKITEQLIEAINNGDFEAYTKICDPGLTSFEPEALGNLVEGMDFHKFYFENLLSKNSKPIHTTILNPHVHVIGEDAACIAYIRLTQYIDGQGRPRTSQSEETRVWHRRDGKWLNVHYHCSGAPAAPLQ
Sequence of MLK1(h) (human) (P80192 132-413 limits assumed): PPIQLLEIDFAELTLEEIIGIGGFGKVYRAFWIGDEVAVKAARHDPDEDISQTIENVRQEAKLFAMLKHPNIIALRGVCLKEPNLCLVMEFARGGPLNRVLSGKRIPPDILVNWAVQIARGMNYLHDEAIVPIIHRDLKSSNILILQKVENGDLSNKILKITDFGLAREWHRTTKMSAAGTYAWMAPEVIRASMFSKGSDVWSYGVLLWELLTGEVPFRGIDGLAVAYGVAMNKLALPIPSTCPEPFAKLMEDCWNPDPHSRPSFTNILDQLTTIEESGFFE
Sequence of Abl(T315I)(h) (human) (P00519 27-1130 T315I limits assumed): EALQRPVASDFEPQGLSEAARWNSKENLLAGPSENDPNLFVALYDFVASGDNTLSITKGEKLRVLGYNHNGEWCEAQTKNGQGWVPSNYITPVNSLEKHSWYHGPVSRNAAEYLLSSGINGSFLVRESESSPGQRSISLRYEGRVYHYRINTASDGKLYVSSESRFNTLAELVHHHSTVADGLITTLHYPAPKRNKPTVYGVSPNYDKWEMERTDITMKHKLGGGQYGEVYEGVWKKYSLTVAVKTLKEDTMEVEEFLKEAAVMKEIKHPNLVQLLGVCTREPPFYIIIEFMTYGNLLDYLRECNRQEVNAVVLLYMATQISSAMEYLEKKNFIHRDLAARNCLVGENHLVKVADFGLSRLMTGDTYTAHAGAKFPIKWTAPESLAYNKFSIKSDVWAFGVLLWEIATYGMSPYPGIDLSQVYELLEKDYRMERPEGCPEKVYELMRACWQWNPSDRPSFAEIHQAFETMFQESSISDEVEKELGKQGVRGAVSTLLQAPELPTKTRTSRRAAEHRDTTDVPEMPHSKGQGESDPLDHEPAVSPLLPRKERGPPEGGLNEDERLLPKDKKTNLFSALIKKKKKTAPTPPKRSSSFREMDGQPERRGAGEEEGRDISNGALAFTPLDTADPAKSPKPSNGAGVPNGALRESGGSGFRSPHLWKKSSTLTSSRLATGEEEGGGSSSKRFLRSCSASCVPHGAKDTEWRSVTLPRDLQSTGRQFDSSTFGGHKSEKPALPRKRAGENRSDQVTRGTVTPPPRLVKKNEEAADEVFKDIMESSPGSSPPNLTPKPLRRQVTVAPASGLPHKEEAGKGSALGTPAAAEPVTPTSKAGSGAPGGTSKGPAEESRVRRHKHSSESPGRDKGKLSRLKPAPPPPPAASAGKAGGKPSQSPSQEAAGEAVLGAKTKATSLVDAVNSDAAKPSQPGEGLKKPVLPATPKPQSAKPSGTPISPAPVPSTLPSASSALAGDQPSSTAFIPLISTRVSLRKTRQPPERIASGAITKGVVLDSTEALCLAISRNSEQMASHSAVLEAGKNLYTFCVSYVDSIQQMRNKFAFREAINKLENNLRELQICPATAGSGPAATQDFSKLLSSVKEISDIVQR
Sequence of CLK3(h) (human) (P49761 whole entry): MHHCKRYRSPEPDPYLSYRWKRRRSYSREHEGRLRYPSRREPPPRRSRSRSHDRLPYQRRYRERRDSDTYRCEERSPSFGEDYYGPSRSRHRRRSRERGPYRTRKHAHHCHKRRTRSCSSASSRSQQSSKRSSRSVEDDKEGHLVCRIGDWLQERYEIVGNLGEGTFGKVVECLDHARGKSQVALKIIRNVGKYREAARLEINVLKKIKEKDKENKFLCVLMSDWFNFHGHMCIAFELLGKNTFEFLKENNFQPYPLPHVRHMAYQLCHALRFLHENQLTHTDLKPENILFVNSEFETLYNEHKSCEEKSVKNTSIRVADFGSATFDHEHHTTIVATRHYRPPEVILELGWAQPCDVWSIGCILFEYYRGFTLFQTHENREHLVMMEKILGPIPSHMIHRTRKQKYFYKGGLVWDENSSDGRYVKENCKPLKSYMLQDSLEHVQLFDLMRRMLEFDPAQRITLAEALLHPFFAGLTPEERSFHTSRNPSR
Sequence of NEK7(h) (human) (Q8TDX7 whole entry): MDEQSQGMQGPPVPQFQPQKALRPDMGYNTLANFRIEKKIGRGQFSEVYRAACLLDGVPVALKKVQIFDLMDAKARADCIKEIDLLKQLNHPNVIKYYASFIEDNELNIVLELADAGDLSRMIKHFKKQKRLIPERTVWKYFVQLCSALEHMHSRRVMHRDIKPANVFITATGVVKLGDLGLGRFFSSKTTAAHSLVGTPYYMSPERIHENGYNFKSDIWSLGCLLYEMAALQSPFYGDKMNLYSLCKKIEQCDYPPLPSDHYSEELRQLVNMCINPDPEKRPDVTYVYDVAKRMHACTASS
Sequence of IR(h), activated (human) (P06213 1005-1310 limits assumed): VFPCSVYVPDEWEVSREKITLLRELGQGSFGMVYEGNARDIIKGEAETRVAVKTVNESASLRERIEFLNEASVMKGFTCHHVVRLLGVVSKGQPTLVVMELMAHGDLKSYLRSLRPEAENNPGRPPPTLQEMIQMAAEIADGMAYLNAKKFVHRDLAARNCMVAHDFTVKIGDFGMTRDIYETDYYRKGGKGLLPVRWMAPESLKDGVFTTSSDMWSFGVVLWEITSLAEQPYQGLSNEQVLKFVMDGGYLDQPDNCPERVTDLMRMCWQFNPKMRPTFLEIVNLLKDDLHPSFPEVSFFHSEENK
Sequence of IR(h) (human) (P06213 1005-1310 limits assumed): as above
Sequence of HIPK1(h) (human) (Q86Z02 158-555 limits assumed): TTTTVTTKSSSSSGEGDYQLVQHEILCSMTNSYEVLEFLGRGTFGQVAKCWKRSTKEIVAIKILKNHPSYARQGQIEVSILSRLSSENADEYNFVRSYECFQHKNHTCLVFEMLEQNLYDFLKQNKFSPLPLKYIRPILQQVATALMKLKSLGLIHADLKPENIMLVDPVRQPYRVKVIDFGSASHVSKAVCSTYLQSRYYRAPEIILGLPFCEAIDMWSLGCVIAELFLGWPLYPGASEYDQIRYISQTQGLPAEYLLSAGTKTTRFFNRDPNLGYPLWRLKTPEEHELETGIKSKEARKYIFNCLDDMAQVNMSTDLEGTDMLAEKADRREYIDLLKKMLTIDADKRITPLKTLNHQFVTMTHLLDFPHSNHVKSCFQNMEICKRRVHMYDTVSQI

For MMI-0500 (peptide), the % activity, 100 µM is 16% in the assay with Abl(T315I)(h) (human); 22% with Arg(h) (human); 76% in the assay with CLK3(h) (human); 3% with CaMKIIγ(h) (human); 93% in the assay with GRK7(h) (human); 47% in the assay with HIPK1(h) (human). Besides, the % activity, 100 µM was 95% in the assay with IR(h) (human); 90% in the assay with IR(h), activated (human); 49% with JAK2(h) (human); 95% in the assay with JAK3(h) (human); 43% in the assay with MLK1(h) (human); 8% with MSK1(h) (human). Moreover, the % activity, 100 µM with Mer(h) (human) stood at 17%; with NEK2(h) (human), 0%; with NEK7(h) (human), 89%; with PKBα(h) (human) it was 30%; with TLK2(h) (human), 133%; in the assay with ULK3(h) (human) it was 177%. Further, the % activity, 100 µM with cKit(D816H)(h) (human) was found to be 194%; with mTOR/FKBP12(h) (human), 140%.
